Assay results: IntAct's records for PubMed 22089237

B1: Alpha-1A adrenergic receptor (Homo sapiens), P35348 (parent)
chain: MVFLSGNASDSSNCTQPPAPVNISKAILLGVILGGLILFGVLGNILVILSVACHRHLHSVTHYYIVNLAVADLLLTSTVLPFSAIFEVLGYWAFGRVFCNIWAAVDVLCCTASIMGLCIISIDRYIGVSYPLRYPTIVTQRRGLMALLCVWALSLVISIGPLFGWRQPAPEDETICQINEEPGYVLFSALGSFYLPLAIILVMYCRVYVVAKRESRGLKSGLKTDKSDSEQVTLRIHRKNAPAGGSGMASAKTKTHFSVRLLKFSREKKAAKTLGIVVGCFVLCWLPFFLVMPIGSFFPDFKPSETVFKIVFWLGYLNSCINPIIYPCSSQEFKKAFQNVLRIQCLCRKQSSKHALGYTLHPPSQAVEGQHKDMVRIPVGSRETFYRISKTDGVCEWKFFSSMPRGSARITVSKDQSSCTTARVRSKSFLQVCCCVGPSTPSLDKNHQVPTIKVHTISLSENGEEV

Variants of: B1
Conditions: with arrb1_rat Arrb1, P29066
Chain of arrb1_rat Arrb1, P29066 (P29066 whole entry): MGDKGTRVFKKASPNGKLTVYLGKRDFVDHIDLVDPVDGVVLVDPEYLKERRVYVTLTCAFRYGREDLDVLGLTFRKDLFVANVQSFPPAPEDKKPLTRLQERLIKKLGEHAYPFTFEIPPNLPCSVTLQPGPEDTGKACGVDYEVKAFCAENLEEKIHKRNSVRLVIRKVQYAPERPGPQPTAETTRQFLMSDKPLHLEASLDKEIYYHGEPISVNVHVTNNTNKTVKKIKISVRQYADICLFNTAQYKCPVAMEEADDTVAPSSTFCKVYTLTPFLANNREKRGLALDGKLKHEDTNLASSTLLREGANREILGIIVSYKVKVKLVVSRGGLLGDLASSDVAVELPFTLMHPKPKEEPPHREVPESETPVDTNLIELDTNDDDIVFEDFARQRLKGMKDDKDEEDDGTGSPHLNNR

| effect of a mutation on the interaction | Variant |
| --- | --- |
| increasing interaction strength | MVFLSGNASDSSNCTQPPAPVNISKAILLGVILGGLILFGVLGNILVILSVACHRHLHSVTHYYIVNLAVADLLLTSTVLPFSAIFEVLGYWAFGRVFCNIWAAVDVLCCTASIMGLCIISIDRYIGVSYPLRYPTIVTQRRGLMALLCVWALSLVISIGPLFGWRQPAPEDETICQINEEPGYVLFSALGSFYLPLAIILVMYCRVYVVAKRESRGLKSGLKTDKSDSEQVTLRIHRKNAPAGGSRMASAKTKTHFSVRLLKFSREKKAAKTLGIVVGCFVLCWLPFFLVMPIGSFFPDFKPSETVFKIVFWLGYLNSCINPIIYPCSSQEFKKAFQNVLRIQCLCRKQSSKHALGYTLHPPSQAVEGQHKDMVRIPVGSRETFYRISKTDGVCEWKFFSSMPRGSARITVSKDQSSCTTARVRSKSFLQVCCCVGPSTPSLDKNHQVPTIKVHTISLSENGEEV [G247R] |
